Assay [1] has as its target T1, hASCT1 receptor (human, UniProt P43007 1-532).
T1 construct: whole, on cells
T1 sequence: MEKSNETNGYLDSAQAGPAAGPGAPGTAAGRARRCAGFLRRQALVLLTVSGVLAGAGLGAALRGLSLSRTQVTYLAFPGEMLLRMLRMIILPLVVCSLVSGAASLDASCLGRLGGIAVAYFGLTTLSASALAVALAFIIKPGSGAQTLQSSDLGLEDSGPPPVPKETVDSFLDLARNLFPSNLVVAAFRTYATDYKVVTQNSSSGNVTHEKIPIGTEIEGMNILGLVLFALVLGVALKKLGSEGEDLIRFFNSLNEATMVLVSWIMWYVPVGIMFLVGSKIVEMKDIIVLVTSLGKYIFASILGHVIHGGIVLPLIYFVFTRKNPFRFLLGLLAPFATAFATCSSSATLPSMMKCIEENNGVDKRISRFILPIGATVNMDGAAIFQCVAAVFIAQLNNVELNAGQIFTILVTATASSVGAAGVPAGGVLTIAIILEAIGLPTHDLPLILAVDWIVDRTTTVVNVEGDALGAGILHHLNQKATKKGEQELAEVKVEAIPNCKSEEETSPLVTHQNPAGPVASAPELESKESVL
The assay can be described thus: flow cytometry on XChASCT1 cells, anti-RGS-His detection. For orientation: In flow cytometry, cells or beads pass a laser one at a time.

In assay [2] the target is T2, hASCT2 receptor (human type 2 sodium-dependent neutral amino acid transporter) (human, UniProt Q15758 1-541).
T2 construct: whole, on cells
T2 sequence: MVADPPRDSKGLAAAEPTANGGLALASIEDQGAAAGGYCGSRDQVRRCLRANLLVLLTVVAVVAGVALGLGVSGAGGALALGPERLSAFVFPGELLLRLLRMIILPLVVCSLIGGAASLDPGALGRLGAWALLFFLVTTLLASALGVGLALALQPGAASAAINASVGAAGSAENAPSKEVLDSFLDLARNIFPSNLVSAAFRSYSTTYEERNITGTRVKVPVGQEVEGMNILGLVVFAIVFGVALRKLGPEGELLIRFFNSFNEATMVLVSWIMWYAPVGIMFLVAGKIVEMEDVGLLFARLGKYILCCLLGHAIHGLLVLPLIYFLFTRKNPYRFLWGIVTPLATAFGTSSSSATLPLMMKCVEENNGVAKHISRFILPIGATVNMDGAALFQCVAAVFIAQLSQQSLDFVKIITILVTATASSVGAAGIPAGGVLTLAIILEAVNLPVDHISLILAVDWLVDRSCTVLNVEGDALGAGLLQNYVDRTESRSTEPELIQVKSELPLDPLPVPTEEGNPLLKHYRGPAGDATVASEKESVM
The assay can be described thus: flow cytometry on XChASCT2 cells and on TE671 and TE671galv cells, anti-RGS-His detection.

Assay [3] concerns the target T2, hASCT2 receptor (human type 2 …). The assay can be described thus: flow cytometry on XChASCT2 cells, anti-RGS-His detection.

B1: soluble recombinant SU subunit of the HERV-W envelope (EnvSU, 1-317) (ligand)
chain: APPPCRCMTSSSPYQEFLWRMQRPGNIDAPSYRSLSKGTPTFTAHTHMPRNCYHSATLCMHANTHYWTGKMINPSCPGGLGVTVCWTYFTQTGMSDGGGVQDQAREKHVKEVISQLTRVHGTSSPYKGLDLSKLHETLRTHTRLVSLFNTTLTGLHEVSAQNPTNCWICLPLNFRPYVSIPVPEQWNNFSTEINTTSVLVGPLVSNLEITHTSNLTCVKFSNTTYTTNSQCIRWVTPPTQIVCLPSGIFFVCGTSAYRCLNGSSESMCFLSFLVPPMTIYTEQDLYSYVISKPAAARRGSHHHHHH
notes: range 21-317; Used as filtered HEK293T supernatant; also called soluble SU; SU subunit (1-317)
B1: the binding result in assay [1] and in assay [2] was “binds” each time.

B2: soluble recombinant envelope protein Env-Gp60 (Gp60, 1-435) (ligand)
chain: not shown
notes: range 21-435; Used as filtered HEK293T supernatant; the construct is printed as 1-435; also called soluble envelope
Turning to B2, in assay [3], the binding result is “binds”.

These data come from patent US20160090402A1 (BIOMERIEUX, published 2016).
